The test deals with T1, AFP p26 (human, UniProt P02771 381-609).
T1 construct: The construct used is not described
T1 sequence: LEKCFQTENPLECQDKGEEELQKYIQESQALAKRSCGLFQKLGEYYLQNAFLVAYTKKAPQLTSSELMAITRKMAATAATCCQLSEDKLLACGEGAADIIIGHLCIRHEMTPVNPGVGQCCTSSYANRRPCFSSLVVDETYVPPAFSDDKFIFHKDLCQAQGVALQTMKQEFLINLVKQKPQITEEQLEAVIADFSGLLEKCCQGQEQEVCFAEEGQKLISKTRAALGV
The test can be described thus: phage ELISA, A450 target/A450 IgG1-Fc. In a few lines:
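Using VCSM13 helper phage, phage were rescued in 96-well format from single phagemid colonies taken from panning output. Wells were coated with 1.3 microg/ml goat anti-human IgG1-Fc antibody and captured 5 nM recombinant human target or IgG1-Fc before 50 microl of 5×-diluted phage were added, with binding read at 450 nm via HRP-conjugated anti-M13 antibody. Each clone's ELISA ratio is its target-to-IgG1-Fc absorbance, averaged across all screened wells with that clone.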

B1: SEQ ID NO 839 (designed binder)
chain: MGSWTLFKWDLAFIKWQLEALGGSEAELAWFEYEIAAFEDSLQNYKGKGNPEVEALRKEAAAIRDELQAYRHN
The molecule B1 showed an ELISA_avg of 12.1 ratio.

B2: SEQ ID NO 840 (designed binder)
chain: MGSWILFKEDLAFIKWQLEALGGSEAELAWFETTIANFESDLQKYKGKGNPEVEALRKEAAAIRDELQAYRHN
On to B2, for which the ELISA_avg was 23.3 ratio.

B3: SEQ ID NO 827 (designed binder)
chain: MGSWEHFKVELAGIKAYLEALGGSEAELALFEWAIADFESILQDYKGKGNPEVEALRKEAAAIRDELQAYRHN
Consider B3, for which the ELISA_avg turned out to be 18.1 ratio.

B4: SEQ ID NO 828 (designed binder)
chain: MGSWIYFKDELAGIKKYLEALGGSEAELAMFEVAIADFEAILQKYKGKGNPEVEALRKEAAAIRDELQAYRHN
Take B4: the ELISA_avg was found to be 15.9 ratio.

B5: SEQ ID NO 846 (designed binder)
chain: MGSWYWFKYELAEIKWHLEALGGSEAELAHFEHSIAVFESQLQQYKGKGNPEVEALRKEAAAIRDELQAYRHN
Turning to B5, the ELISA_avg was 21.5 ratio.

B6: SEQ ID NO 844 (designed binder)
chain: MGSWVRFKTELAYIKESLEALGGSEAELAMFESEIAIFEHSLQTYKGKGNPEVEALRKEAAAIRDELQAYRHN
For B6, the ELISA_avg turned out to be 20.5 ratio.

B7: SEQ ID NO 843 (designed binder)
chain: MGSWYIFKQELASIKLSLEALGGSEAELAHFEAEIAWFEWWLQWYKGKGNPEVEALRKEAAAIRDELQAYRHN
B7 showed an ELISA_avg of 19.4 ratio.

B8: SEQ ID NO 838 (designed binder)
chain: MGSWMYFKSHLAWIKWELEALGGSEAELAFFEDNIAQFEYWLQLYKGKGNPEVEALRKEAAAIRDELQAYRHN
Regarding B8, the ELISA_avg turned out to be 19.8 ratio.

B9: SEQ ID NO 824 (designed binder)
chain: MGSWENFKDTLAWIKEYLEALGGSEAELAGFEHRIAIFEHYLQYYKGKGNPEVEALRKEAAAIRDELQAYRHN
Consider B9, for which the ELISA_avg was 19.2 ratio.

B10: SEQ ID NO 829 (designed binder)
chain: MGSWVLFKQELAWIKWLLEALGGSEAELAAFEEQIARFEHDLQKYKGKGNPEVEALRKEAAAIRDELQAYRHN
In turn, B10 showed an ELISA_avg of 29.5 ratio.

B11: SEQ ID NO 831 (designed binder)
chain: MGSWFLFKSELAWIKWRLEALGGSEAELAYFEYQIAEFEFWLQSYKGKGNPEVEALRKEAAAIRDELQAYRHN
Regarding B11, the ELISA_avg is 25.8 ratio.

B12: SEQ ID NO 832 (designed binder)
chain: MGSWLLFKSELAWIKWYLEALGGSEAELAEFEWNIAEFEKNLQKYKGKGNPEVEALRKEAAAIRDELQAYRHN
B12 came in with an ELISA_avg of 25.7 ratio.

B13: SEQ ID NO 833 (designed binder)
chain: MGSWLLFKSDLAWIKWRLEALGGSEAELAEFEESIAMFEHWLQEYKGKGNPEVEALRKEAAAIRDELQAYRHN
For B13, the ELISA_avg was found to be 33.3 ratio.

B14: SEQ ID NO 830 (designed binder)
chain: MGSWVLFKQELAWIKWYLEALGGSEAELAAFEWEIAAFEQRLQIYKGKGNPEVEALRKEAAAIRDELQAYRHN
As for B14, the ELISA_avg came out at 22.5 ratio.

B15: SEQ ID NO 834 (designed binder)
chain: MGSWLYFKSDLAWIKWRLEALGGSEAELADFEEAIAEFEQALQIYKGKGNPEVEALRKEAAAIRDELQAYRHN
B15 had an ELISA_avg of 21.2 ratio.

B16: SEQ ID NO 837 (designed binder)
chain: MGSWVYFKAHLAFIKWELEALGGSEAELANFESTIAEFEKYLQVYKGKGNPEVEALRKEAAAIRDELQAYRHN
B16: the ELISA_avg amounted to 20.8 ratio.

B17: SEQ ID NO 821 (designed binder)
chain: MGSWFYFKYELAWIKHWLEALGGSEAELASFETHIAFFEHQLQYYKGKGNPEVEALRKEAAAIRDELQAYRHN
As to B17, the ELISA_avg is 13.7 ratio.

B18: SEQ ID NO 841 (designed binder)
chain: MGSWYFFKSRLAYIKVYLEALGGSEAELAGFEWEIAHFEEWLQRYKGKGNPEVEALRKEAAAIRDELQAYRHN
B18: the ELISA_avg came out at 30.1 ratio.

B19: SEQ ID NO 842 (designed binder)
chain: MGSWYIFKSELAWIKWYLEALGGSEAELANFEVEIATFETWLQGYKGKGNPEVEALRKEAAAIRDELQAYRHN
In turn, B19 came in with an ELISA_avg of 29.6 ratio.

B20: SEQ ID NO 826 (designed binder)
chain: MGSWSLFKHRLANIKVYLEALGGSEAELADFETFIAYFEKDLQEYKGKGNPEVEALRKEAAAIRDELQAYRHN
Molecule B20 had an ELISA_avg of 19.6 ratio.

B21: SEQ ID NO 847 (designed binder)
chain: MGSWWVFKKTLAEIKWTLEALGGSEAELAYFEAEIAFFEFILQQYKGKGNPEVEALRKEAAAIRDELQAYRHN
Regarding B21, the ELISA_avg was 18.6 ratio.

B22: SEQ ID NO 835 (designed binder)
chain: MGSWKLFKYELAWIKWRLEALGGSEAELADFEASIAQFEKYLQTYKGKGNPEVEALRKEAAAIRDELQAYRHN
B22 registered an ELISA_avg of 23.4 ratio.

B23: SEQ ID NO 836 (designed binder)
chain: MGSWYLFKNELAWIKWRLEALGGSEAELADFEMVIAMFEDHLQEYKGKGNPEVEALRKEAAAIRDELQAYRHN
Consider B23, for which the ELISA_avg came to 31.1 ratio.

B24: SEQ ID NO 825 (designed binder)
chain: MGSWVLFKDYLADIKHYLEALGGSEAELANFEHLIANFEGDLQTYKGKGNPEVEALRKEAAAIRDELQAYRHN
B24 returned an ELISA_avg of 13.8 ratio.

B25: SEQ ID NO 822 (designed binder)
chain: MGSWADFKWTLAYIKHRLEALGGSEAELAFFEMEIAYFEQSLQNYKGKGNPEVEALRKEAAAIRDELQAYRHN
B25 displayed an ELISA_avg of 31.5 ratio.

B26: SEQ ID NO 855 (designed binder)
chain: MGSWTHFKEDLAHIKDRLEALGGSEAELAAFELDIAWFEFMLQYYKGKGNPEVEALRKEAAAIRDELQAYRHN
For the molecule B26, the ELISA_avg came out at 30.4 ratio.

B27: SEQ ID NO 862 (designed binder)
chain: MGSWSIFKQDLADIKDSLEALGGSEAELAMFEMDIAWFEHTLQYYKGKGNPEVEALRKEAAAIRDELQAYRHN
As for B27, the ELISA_avg was 16.6 ratio.

B28: SEQ ID NO 850 (designed binder)
chain: MGSWIIFKTDLARIKNYLEALGGSEAELATFERDIAWFEFMLQIYKGKGNPEVEALRKEAAAIRDELQAYRHN
In the case of B28, the ELISA_avg was 16.7 ratio.

B29: SEQ ID NO 856 (designed binder)
chain: MGSWYYFKERLAAIKDRLEALGGSEAELAIFEADIAWFEFMLQYYKGKGNPEVEALRKEAAAIRDELQAYRHN
For the molecule B29, the ELISA_avg came to 31.5 ratio.

B30: SEQ ID NO 853 (designed binder)
chain: MGSWLAFKEDLAHIKSILEALGGSEAELAEFEHDIAWFEYMLQYYKGKGNPEVEALRKEAAAIRDELQAYRHN
Molecule B30 showed an ELISA_avg of 18.6 ratio.

B31: SEQ ID NO 854 (designed binder)
chain: MGSWFVFKEDLAGIKFILEALGGSEAELAMFETDIAWFEYMLQYYKGKGNPEVEALRKEAAAIRDELQAYRHN
With B31, the ELISA_avg stood at 14.2 ratio.

B32: SEQ ID NO 859 (designed binder)
chain: MGSWVLFKQDLAMIKQRLEALGGSEAELAMFEYDIAWFEHMLQYYKGKGNPEVEALRKEAAAIRDELQAYRHN
B32: the ELISA_avg is 29.7 ratio.

B33: SEQ ID NO 852 (designed binder)
chain: MGSWQIFKQDLAAIKDYLEALGGSEAELAIFEFDIAWFEHMLQWYKGKGNPEVEALRKEAAAIRDELQAYRHN
The molecule B33 gave an ELISA_avg of 17.4 ratio.

B34: SEQ ID NO 860 (designed binder)
chain: MGSWVEFKRDLANIKQRLEALGGSEAELAQFEMQIAWFEHTLQYYKGKGNPEVEALRKEAAAIRDELQAYRHN
For B34, the ELISA_avg was 30.4 ratio.

B35: SEQ ID NO 851 (designed binder)
chain: MGSWMHFKQDLAEIKGYLEALGGSEAELAIFEMDIAWFEYMLQYYKGKGNPEVEALRKEAAAIRDELQAYRHN
B35 returned an ELISA_avg of 18.9 ratio.

B36: SEQ ID NO 848 (designed binder)
chain: MGSWVYFKDHLAEIKSQLEALGGSEAELALFEYDIAWFEFILQYYKGKGNPEVEALRKEAAAIRDELQAYRHN
B36 registered an ELISA_avg of 22.1 ratio.

B37: SEQ ID NO 849 (designed binder)
chain: MGSWVYFKHRLAEIKDQLEALGGSEAELAEFETDIAWFEWMLQYYKGKGNPEVEALRKEAAAIRDELQAYRHN
B37: the ELISA_avg came to 11.1 ratio.

B38: SEQ ID NO 845 (designed binder)
chain: MGSWYLFKTELAAIKYRLEALGGSEAELASFEYEIAWFEHILQFYKGKGNPEVEALRKEAAAIRDELQAYRHN
In the case of B38, the ELISA_avg amounted to 20.1 ratio.

B39: SEQ ID NO 823 (designed binder)
chain: MGSWAYFKGQLAYIKSGLEALGGSEAELAYFELRIAYFEHWLQNYKGKGNPEVEALRKEAAAIRDELQAYRHN
In turn, B39 yielded an ELISA_avg of 11.4 ratio.

B40: SEQ ID NO 820 (designed binder)
chain: MGSWLYFKYNLAVIKHWLEALGGSEAELAIFEMSIADFEYELQWYKGKGNPEVEALRKEAAAIRDELQAYRHN
B40: the ELISA_avg turned out to be 13.3 ratio.

The values above are taken from patent publication US20230125550A1 (ARCELLX, published 2023).
